This note sets out measurements from PMC2776994 (2009).

In general, Kd refers to the concentration at which binding is half-saturated.

For data set [1], the target named is T1, RepD (Staphylococcus aureus, UniProt P03065).
T1 chain: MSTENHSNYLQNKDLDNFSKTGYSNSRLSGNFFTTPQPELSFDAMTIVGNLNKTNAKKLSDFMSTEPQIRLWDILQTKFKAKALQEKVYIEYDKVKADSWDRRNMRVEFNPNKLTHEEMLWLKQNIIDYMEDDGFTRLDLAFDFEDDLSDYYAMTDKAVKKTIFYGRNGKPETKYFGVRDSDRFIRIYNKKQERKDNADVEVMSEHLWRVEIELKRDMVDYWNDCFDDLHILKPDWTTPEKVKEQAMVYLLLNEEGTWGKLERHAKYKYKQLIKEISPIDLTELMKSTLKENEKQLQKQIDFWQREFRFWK
Put plainly: fluorescence anisotropy. (Polarisation of emitted light reports the rotation of a fluorescent probe.)

Data set [2] concerns the target T2, PcrA helicase (UniProt P56255 1-724).
T2 sequence: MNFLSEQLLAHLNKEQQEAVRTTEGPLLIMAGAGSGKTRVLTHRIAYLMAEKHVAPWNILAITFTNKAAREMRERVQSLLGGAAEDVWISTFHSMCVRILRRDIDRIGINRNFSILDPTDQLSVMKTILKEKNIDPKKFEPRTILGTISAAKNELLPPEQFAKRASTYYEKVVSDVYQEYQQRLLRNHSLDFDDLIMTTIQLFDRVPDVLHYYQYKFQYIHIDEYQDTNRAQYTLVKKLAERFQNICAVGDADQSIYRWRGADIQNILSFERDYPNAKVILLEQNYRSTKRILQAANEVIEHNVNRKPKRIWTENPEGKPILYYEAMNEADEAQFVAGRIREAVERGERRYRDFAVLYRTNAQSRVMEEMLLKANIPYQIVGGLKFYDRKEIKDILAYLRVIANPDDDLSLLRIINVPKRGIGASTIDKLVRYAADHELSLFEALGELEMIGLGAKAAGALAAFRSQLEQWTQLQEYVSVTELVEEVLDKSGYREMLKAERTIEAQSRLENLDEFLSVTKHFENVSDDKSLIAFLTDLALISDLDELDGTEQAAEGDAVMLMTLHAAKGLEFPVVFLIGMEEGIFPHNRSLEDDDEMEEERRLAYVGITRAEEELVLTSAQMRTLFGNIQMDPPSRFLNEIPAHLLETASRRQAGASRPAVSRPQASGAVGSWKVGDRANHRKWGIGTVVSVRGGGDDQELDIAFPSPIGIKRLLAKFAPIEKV
Put plainly: not stated in material.

B1: PcrA (protein)
chain: T2 sequence
modifications: DNA junction
Turning to B1, the equilibrium dissociation constant (Kd) in data set [1] worked out at 22 nM.

B2: dT10 (ssDNA)
DNA: TTTTTTTTTT
As to B2, the Kd in data set [2] is 240 nM.
